The text below walks through data of patent publication US20160193329A1.

For the test, the target named is Toll-like Receptor 5 (human) (UniProt O60602). Description: cell-based or functional assay.

B1: STF2.HA1 (SI) (protein)
chain: AQVINTNSLSLLTQNNLNKSQSALGTAIERLSSGLRINSAKDDAAGQAIANRFTANIKGLTQASRNANDGISIAQTTEGALNEINNNLQRVRELAVQSANSTNSQSDLDSIQAEITQRLNEIDRVSGQTQFNGVKVLAQDNTLTIQVGANDGETIDIDLKQINSQTLGLDSLNVQKAYDVKDTAVTTKAYANNGTTLDVSGLDDAAIKAATGGTNGTASVTGGAVKFDADNNKYFVTIGGFTGADAAKNGDYEVNVATDGTVTLAAGATKTTMPAGATTKTEVQELKDTPAVVSADAKNALIAGGVDATDANGAELVKMSYTDKNGKTIEGGYALKAGDKYYAADYDEATGAIKAKTTSYTAADGTTKTAANQLGGVDGKTEVVTIDGKTYNASKAAGHDFKAQPELAEAAAKTTENPLQKIDAALAQVDALRSDLGAVQNRFNSAITNLGNTVNNLSEARSRIEDSDYATEVSNMSRAQILQQAGTSVLAQANQVPQNVLSLLAKGIAPLQLGNCSVAGWILGNPECELLISRESWSYIVEKPNPENGTCYPGHFADYEELREQLSSVSSFERFEIFPKESSWPNHTTTGVSASCSHNGESSFYKNLLWLTGKNGLYPNLSKSYANNKEKEVLVLWGVHHPPNIGDQRALYHKENAYVSVVSSHYSRKFTPEIAKRPKVRDQEGRINYYWTLLEPGDTIIFEANGNLIAPRYAFALSRGFGSGIINS
As to B1, the IL-8, Mean Result (ng/nL), HEK 293 cells, lot 1 (reference), well 1 is 635 ng/nL; the IL-8, Mean Result (ng/nL), HEK 293 cells, lot 1 (reference), well 2 was found to be 797; the IL-8, Mean Result (ng/nL), HEK 293 cells, lot 1 (reference), well 3 was 1070; the IL-8, Mean Result (ng/nL), HEK 293 cells, lot 1 (reference), well 4 came to 1230. This molecule yielded an IL-8, Mean Result (ng/nL), HEK 293 cells, lot 1 (reference), well 5 of 1360; an IL-8, Mean Result (ng/nL), HEK 293 cells, lot 1 (reference), well 6 of 1540; an IL-8, Mean Result (ng/nL), HEK 293 cells, lot 2, well 1 of 1460 ng/nL; an IL-8, Mean Result (ng/nL), HEK 293 cells, lot 2, well 2 of 1590. The same molecule had an IL-8, Mean Result (ng/nL), HEK 293 cells, lot 2, well 3 of 1610; an IL-8, Mean Result (ng/nL), HEK 293 cells, lot 2, well 4 of 1300; an IL-8, Mean Result (ng/nL), HEK 293 cells, lot 2, well 5 of 1380; an IL-8, Mean Result (ng/nL), HEK 293 cells, lot 2, well 6 of 1090. Further, the IL-8, Mean of all wells, HEK 293 cells, lot 1 (reference) worked out at 1110; the IL-8, Mean of all wells, HEK 293 cells, lot 2 turned out to be 1410; the T/C ratio (IL-8 of lot 2 against the reference lot 1 at about 278 ng/ml) is 1.3.
